Assay results as given in US20250327097A1, “ORGANISMS PRODUCING LESS CROTONIC ACID” (Global Bioenergies, priority 2021, published 2025).
Residue numbers refer to the chain shown, from its start. Names and notes keep the numbering of the source.

B1: I283L-N285M-N287T-S322T-A337T-N388M-K394R-C430N-L432F-L434W-S436N-dG462 (protein)
chain: MFLKSLREQINLLKRQGDLRIINRPVDSYLEAAAIIRRSTETKAPVPLMTNIKGYPGCSIVGGLAALSSNPEYPLSRVAMSLGLSTTASAQSIVQYLIDGLKKTPYLPVEIDSNSAPCKQNILRGEDASLAHFPIPQVHQHDGNRYVNTWGVFIVESPDGQWCNWSIQRVQYLNDRQMIALVFPSQHISDIWEEWVKIGKPMPYALVQGCEPIVPYIAGLPLLERNVNEAEYIGALYGKGIEVVKCETHDLRVPASSEVVIEGYFAITREGVEGPFGEFAGYLPMETSLQPILSITAISWQDDPIWPVVAEGKPVDEYHTCTGIGDAAAIQNVLLTTNLPVSFVWVPLYSACHLMIVSINRHWRQTHPDLTSEQLTKKVGDVIHQTRMSIKLPRIVVLDDDVDPADTESLLWALATRIHPERKRYFYESNIFPWLNCYSEEERHNRKGKRVIIDALLPENHGAISSFDYAYPDDIKQRVLMHWETDFSHD
B2: N285M-N287T-S322T-N388M-K394R-C430N-L432F-L434W-S436N-dG462-A463V (protein)
chain: B1 chain with L283I, T337A, A463V
B3: I283C-P284E-N287Q-S322T-N388M-K394R-C430N-L432F-L434W-S436N-dA463 (protein)
chain: B1 chain with L283C, P284E, M285N, T287Q, T337A
B4: N285M-N287T-S322T-N388M-K394R-C430N-L432F-L434W-S436N-dG462-A470S (protein)
chain: B1 chain with L283I, T337A, A470S
B5: N285M-N287T-S322T-N388M-K394R-C430N-L432F-L434W-S436N-dA463-S465V (protein)
chain: B1 chain with L283I, T337A, S465V
B6: P284D-N287Q-S322T-N388M-K394R-C430N-L432F-L434W-S436N-dA463 (protein)
chain: B1 chain with L283I, P284D, M285N, T287Q, T337A
B7: P284E-N287Q-L289H-S322T-N388M-K394R-C430N-L432F-L434W-S436N-dA463 (protein)
chain: B1 chain with L283I, P284E, M285N, T287Q, L289H, T337A
B8: I283L-P284E-N287Q-S322T-N388M-K394R-C430N-L432F-L434W-S436N-dA463 (protein)
chain: B1 chain with P284E, M285N, T287Q, T337A
B9: N285M-N287T-S322T-N388M-K394R-C430N-L432F-L434W-S436N-dG462-A463F (protein)
chain: B1 chain with L283I, T337A, A463F
B10: N285M-N287T-S322T-N388M-K394R-C430N-L432F-L434W-S436N-dG462-Y469T (protein)
chain: B1 chain with L283I, T337A, Y469T
B11: N285M-N287T-S322T-N388M-K394R-C430N-L432F-L434W-S436N-dG462-A463M (protein)
chain: B1 chain with L283I, T337A, A463M
B12: P284E-N287Q-S322T-N388M-K394R-R422H-C430N-L432F-L434W-S436N-dA463 (protein)
chain: B1 chain with L283I, P284E, M285N, T287Q, T337A, R422H
B13: N285M-N287T-S322T-N388M-K394R-C430N-L432F-L434W-S436N-dG462-Y469N (protein)
chain: B1 chain with L283I, T337A, Y469N
B14: N285M-N287T-S322T-N388M-K394R-C430N-L432F-L434W-S436N-dA463-A470S (protein)
chain: B1 chain with L283I, T337A, A470S
B15: N285M-N287T-S322T-N388M-K394R-C430N-L432F-L434W-S436N-N460G-dG462 (protein)
chain: B1 chain with L283I, T337A, N460G
B16: P284E-N287Q-L289R-S322T-N388M-K394R-C430N-L432F-L434W-S436N-dA463 (protein)
chain: B1 chain with L283I, P284E, M285N, T287Q, L289R, T337A
B17: P284E-N287Q-S322T-N388M-K394R-C430N-L432F-L434W-S436N-dA463-S465A (protein)
chain: B1 chain with L283I, P284E, M285N, T287Q, T337A, S465A
B18: N285M-N287T-S322T-N388M-K394R-C430N-L432F-L434W-S436N-dG462-Y469S (protein)
chain: B1 chain with L283I, T337A, Y469S
B19: N285M-N287T-S322T-N388M-K394R-C430N-L432F-L434W-S436N-dA463-S465I (protein)
chain: B1 chain with L283I, T337A, S465I
B20: I283Q-P284E-N287Q-S322T-N388M-K394R-C430N-L432F-L434W-S436N-dA463 (protein)
chain: B1 chain with L283Q, P284E, M285N, T287Q, T337A
B21: P284E-N287Q-S322T-N388M-K394R-C430N-L432F-L434W-S436N-dA463-A470T (protein)
chain: B1 chain with L283I, P284E, M285N, T287Q, T337A, A470T
B22: N388M-K394H-C430S-L432F-L434W-S436N (protein)
chain: B1 chain with L283I, M285N, T287N, T322S, T337A, R394H, N430S
B23: P284E-N287Q-S322T-N388M-K394R-C430N-L432F-L434W-S436N-G462R-dA463 (protein)
chain: B1 chain with L283I, P284E, M285N, T287Q, T337A, G462R
B24: P284E-N287Q-S322T-N388M-K394R-C430N-L432F-L434W-S436N-dA463-Y469T (protein)
chain: B1 chain with L283I, P284E, M285N, T287Q, T337A, Y469T
B25: S185T-N388M-C430S-L432F-L434W-S436N (protein)
chain: B1 chain with S185T, L283I, M285N, T287N, T322S, T337A, R394K, N430S

Test system: 3-methylcrotonic acid
Type: biochemical, Yersinia frederiksenii
Design: key: “+” representing a low increase in activity; “++++” representing a high increase in activity

Molecule | Activity relative to WT
B1 | ++++
B2 | ++++
B3 | ++++
B4 | ++++
B5 | ++++
B6 | ++++
B7 | ++++
B8 | ++++
B9 | ++++
B10 | ++++
B11 | ++++
B12 | ++++
B13 | ++++
B14 | ++++
B15 | ++++
B16 | ++++
B17 | ++++
B18 | ++++
B19 | ++++
B20 | ++++
B21 | ++++
B22 | +
B23 | ++++
B24 | ++++
B25 | +
